This note sets out measurements from article PMC7509637 (Advanced Science, 2020).

One experiment deals with T1, Aβ (Homo sapiens, UniProt P05067).
T1 construct: purchased Anaspec Inc
Nature of the experiment: ThT assay of Aβ with P. aeruginosa biofilm fragments. The class given is biochemical. The following applies: Aβ 50 × 10^−6 M ± biofilm fragments 5 × 10^−6 M (protein content), 37 °C, Figure S14. The protocol: P. aeruginosa biofilm fragments were generated by incubating fresh subcultures of bacteria (wild‐type reference strain PAO1) in cation‐adjusted Mueller‐Hinton broth (CAMHB) overnight in a 96‐well plate. After 48 h of incubation, the planktonic bacteria were pipetted out from the culture and replaced with fresh PBS (pH 7.4). The surface pellicle biofilm and ring biofilm attached to the well walls were scooped out and dispersed in PBS. The separated biofilm chunks were purified from the embodied bacteria by vortexing (10 min) with 20 µm glass beads and then repeated centrifugal washing (3 min, 2000 g) with PBS (pH 7.4). The biofilm containing supernatant was collected, concentrated, and adjusted to the concentration of 5 mg mL^−1 in deionized water. The concentration was adjusted with respect to the protein contents of biofilm via the BCA assay. […]
Aβ (Anaspec Inc., purity ≥ 95%) was dissolved in 100 µL of hexafluoro‐2‐propanol (HFIP) and incubated at room temperature for 3 h. […] The ThT fluorescence (excitation: 445 nm/ emission: 485 nm) was recorded at specified time intervals for 50 h. Kinetic parameters (rate constant k, half‐life t 1/2 and lag‐time) were calculated as described.^[ ^94 ^] Briefly, kinetic curves were fitted to a sigmoidal curve =y0+ymax−y0/1+e^−(t−t1/2)k , where y 0 and y max are initial and final ThT fluorescence values, allowing us to calculate lag time = t 1/2 − 2/k.

The test system of another experiment is adult zebrafish. Nature of the experiment: Cognitive memory function of adult zebrafish (arena 2 avoidance). The format is in vivo, zebrafish (AB, Danio rerio). As to conditions: FapCS alone.

Experimental for adult zebrafish: Adult zebrafish (10 months) were employed for the study. Prior to microinjection, adult zebrafish were anesthetized by placing them in a beaker filled with ice‐chilled tricaine (0.01% in Holtfreter's buffer) for 20 s. […] The needle penetrated between left and right telencephalon for not more than 1 mm and injection volume was 1 µL. The syringe was washed with ethanol and PBS in between the injections. The injections were made under a stereomicroscope and fish were held in place with forceps. After microinjection, the fish was placed back in the water tank for recovery.
The behavioral pathology of the adult fish was observed after 4 d and 2 weeks of microinjection. The behavioral pathology of movement frequency and traveled distance was recorded with a zebrabox (Viewpoint) in a 1 L swimming tank. For cognitive function test, the tank was hypothetically divided into two parts of arena 1 and arena 2, and arena 2 was labeled by pasting a red paper at the bottom of the tank. The behavior of the untreated fish was recorded as positive control, in both arenas. […] After training, the swimming behavior of the fish was recorded in whole tank and then analyzed for arena 1 versus arena 2 with software EthnoVision X1.
The observations were made for 1 min with three fish per samples. […] Movement trajectories were also recorded with the instrument's camera.

Consider amyloid beta [Aβ], for which, in the experiment with Aβ, the lag time was found to be 23 h.

B1: FapCS: FapC seeds obtained by sonication of mature FapC fibrils (P. aeruginosa) (protein)
chain: GNEGGWHPPKPNPQSNNKGGATALVVDTQQNYNNKVSNFGTLNNASVSGSIKDASGNVGVNVAAGDNNQQANAAALASADASFVFGTATASTSVLQSGYGNTLNNYSNPNTASLSNSANNVSGNLGVNVAAGNFNQQKNDLAAAVSNGQYSTAGSAASQTSTGNTTVNSANYAYGGTYVSLKLNADGSYKGTSDQIGDVYLDTWEGQTHPGGSNTGHIDVDSQAQGAKDLNHDGGAFAFKEKGDVDLKGTVSGFIPAIVGFKTPVTNNASLSNSLQNVSGNVGVNIAAGGGNQQSNSLSIAAGCSSCPAGGESLGF
As to B1, the “cognitive memory function (in words), time not stated” value with adult zebrafish was “did not induce any cognitive deficiencies”.
